The values below are quoted from earlier work in PMC10531186.

For this data set, the target named is uPA (Mus musculus) (UniProt P06869).
Sequence of UniProt P06869 (P06869 21-433): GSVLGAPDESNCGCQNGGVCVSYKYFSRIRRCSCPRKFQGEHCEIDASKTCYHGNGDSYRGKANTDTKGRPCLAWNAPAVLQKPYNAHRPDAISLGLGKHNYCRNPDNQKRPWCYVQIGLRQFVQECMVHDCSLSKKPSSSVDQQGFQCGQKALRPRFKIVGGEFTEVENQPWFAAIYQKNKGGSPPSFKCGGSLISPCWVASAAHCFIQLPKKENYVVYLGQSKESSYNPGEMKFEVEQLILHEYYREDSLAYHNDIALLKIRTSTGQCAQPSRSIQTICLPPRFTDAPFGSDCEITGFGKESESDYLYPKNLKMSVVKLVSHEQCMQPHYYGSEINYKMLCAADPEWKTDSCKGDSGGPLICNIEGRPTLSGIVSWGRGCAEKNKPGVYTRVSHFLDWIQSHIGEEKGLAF

In the case of mupain-1, the Ki – broadly, the equilibrium dissociation constant of an inhibitor or competing ligand from its target – is 185 nM.
